From article PMC7145662, “Crystal structure of the EcoKMcrA N-terminal domain (NEco): recognition of modified cytosine bases without flipping”

Assays:
[1] = target: T1, NEco (EcoKMcrA N-terminal domain) (Escherichia coli K) (UniProt P24200); assay: competition; conditions: 5mC in CpG, both strands; EMSA: 10 nM 33P/32P 30 bp duplex, 5-2000 nM NEco; competition: 10 nM labeled C5mCGG, 10 nM NEco, 3-3000 nM unlabeled competitor; buffer, pH and temperature not …
T1 sequence: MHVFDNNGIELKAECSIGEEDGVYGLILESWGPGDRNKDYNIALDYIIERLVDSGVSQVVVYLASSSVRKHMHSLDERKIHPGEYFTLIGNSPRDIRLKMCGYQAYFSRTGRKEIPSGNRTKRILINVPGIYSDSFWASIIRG

[2] = target: T2, NEco (EcoKMcrA N-terminal domain) (Escherichia coli K, UniProt P24200 1-143); assay: competition; EMSA: 10 nM 33P/32P 30 bp duplex, 5-2000 nM NEco; competition: 10 nM labeled C5mCGG, 10 nM NEco, 3-3000 nM unlabeled competitor; buffer, pH and temperature not; conditions: protein: recombinant
T2 sequence: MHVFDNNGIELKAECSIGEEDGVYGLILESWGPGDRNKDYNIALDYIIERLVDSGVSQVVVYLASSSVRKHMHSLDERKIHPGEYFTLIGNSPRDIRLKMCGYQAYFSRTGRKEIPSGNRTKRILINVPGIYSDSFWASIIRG

[3] = target: T2, NEco (EcoKMcrA N-terminal domain); assay: as above; conditions: protein: recombinant; remark: listed apart in the source
[4] = target: T3, NEco W31H (Escherichia coli K, UniProt P24200 1-143, W31H); assay: as above; conditions: protein: recombinant
T3 sequence: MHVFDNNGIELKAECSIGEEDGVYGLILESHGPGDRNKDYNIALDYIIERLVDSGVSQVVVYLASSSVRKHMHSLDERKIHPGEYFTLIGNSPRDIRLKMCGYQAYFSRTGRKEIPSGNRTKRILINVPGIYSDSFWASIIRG

[5] = target: T4, NEco W31A (Escherichia coli K, UniProt P24200 1-143, W31A); assay: EMSA; discrete complexes, unlike wt; EMSA: 10 nM 33P/32P 30 bp duplex, 5-2000 nM NEco; competition: 10 nM labeled C5mCGG, 10 nM NEco, 3-3000 nM unlabeled competitor; buffer, pH and temperature not; conditions: protein: recombinant
T4 sequence: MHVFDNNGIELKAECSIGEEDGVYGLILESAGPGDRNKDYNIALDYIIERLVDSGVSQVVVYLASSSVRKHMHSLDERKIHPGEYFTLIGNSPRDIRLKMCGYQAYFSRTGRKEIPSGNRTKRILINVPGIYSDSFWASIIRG

[6] = target: T5, NEco W31F (Escherichia coli K, UniProt P24200 1-143, W31F); assay: EMSA; EMSA: 10 nM 33P/32P 30 bp duplex, 5-2000 nM NEco; competition: 10 nM labeled C5mCGG, 10 nM NEco, 3-3000 nM unlabeled competitor; buffer, pH and temperature not; conditions: protein: recombinant
T5 sequence: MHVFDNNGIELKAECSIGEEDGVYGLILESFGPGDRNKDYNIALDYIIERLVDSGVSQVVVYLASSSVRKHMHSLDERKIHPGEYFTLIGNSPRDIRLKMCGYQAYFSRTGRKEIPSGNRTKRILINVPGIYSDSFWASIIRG

[7] = target: T6, NEco W31S (Escherichia coli K, UniProt P24200 1-143, W31S); assay: as above; conditions: protein: recombinant
T6 sequence: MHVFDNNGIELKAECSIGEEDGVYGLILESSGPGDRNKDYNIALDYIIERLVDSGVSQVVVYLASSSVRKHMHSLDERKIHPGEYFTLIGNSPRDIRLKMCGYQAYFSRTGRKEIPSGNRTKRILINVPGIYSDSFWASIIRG

[8] = target: T7, NEco S30A (Escherichia coli K, UniProt P24200 1-143, S30A); assay: as above; conditions: protein: recombinant
T7 sequence: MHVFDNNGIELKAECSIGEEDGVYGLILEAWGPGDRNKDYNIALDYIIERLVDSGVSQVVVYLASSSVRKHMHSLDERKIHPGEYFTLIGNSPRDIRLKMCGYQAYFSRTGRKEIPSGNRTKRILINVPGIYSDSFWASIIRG

[9] = target: T8, NEco W31Y (Escherichia coli K, UniProt P24200 1-143, W31Y); assay: as above; conditions: protein: recombinant
T8 sequence: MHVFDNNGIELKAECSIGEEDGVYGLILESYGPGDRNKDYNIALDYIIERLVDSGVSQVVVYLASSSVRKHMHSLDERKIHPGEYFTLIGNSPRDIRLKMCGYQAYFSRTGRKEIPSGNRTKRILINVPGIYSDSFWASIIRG

[10] = target: T4, NEco W31A; assay: as above; conditions: protein: recombinant
[11] = target: T9, NEco W31V (Escherichia coli K, UniProt P24200 1-143, W31V); assay: as above; conditions: protein: recombinant
T9 sequence: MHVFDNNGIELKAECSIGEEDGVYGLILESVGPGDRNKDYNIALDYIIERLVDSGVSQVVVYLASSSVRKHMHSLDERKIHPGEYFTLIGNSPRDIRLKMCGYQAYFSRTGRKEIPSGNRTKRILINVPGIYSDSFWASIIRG

[12] = target: T10, NEco S30V (Escherichia coli K, UniProt P24200 1-143, S30V); assay: as above; conditions: protein: recombinant
T10 sequence: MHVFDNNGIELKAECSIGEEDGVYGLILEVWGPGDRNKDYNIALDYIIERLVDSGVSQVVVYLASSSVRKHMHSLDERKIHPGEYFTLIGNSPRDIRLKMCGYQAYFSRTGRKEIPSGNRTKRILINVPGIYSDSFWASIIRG

[13] = target: T11, NEco W31I (Escherichia coli K, UniProt P24200 1-143, W31I); assay: as above; conditions: protein: recombinant
T11 sequence: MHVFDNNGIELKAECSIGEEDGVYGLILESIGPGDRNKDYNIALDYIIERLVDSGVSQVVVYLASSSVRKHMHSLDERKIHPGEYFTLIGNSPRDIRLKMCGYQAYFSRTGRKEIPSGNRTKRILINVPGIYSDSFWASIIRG

[14] = target: T12, NEco S30L (Escherichia coli K, UniProt P24200 1-143, S30L); assay: as above; conditions: protein: recombinant
T12 sequence: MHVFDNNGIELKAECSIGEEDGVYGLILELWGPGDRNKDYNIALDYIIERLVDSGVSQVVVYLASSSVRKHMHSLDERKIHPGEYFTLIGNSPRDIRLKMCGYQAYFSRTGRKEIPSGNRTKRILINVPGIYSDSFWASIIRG

[15] = target: T13, NEco W31L (Escherichia coli K, UniProt P24200 1-143, W31L); assay: as above; conditions: protein: recombinant
T13 sequence: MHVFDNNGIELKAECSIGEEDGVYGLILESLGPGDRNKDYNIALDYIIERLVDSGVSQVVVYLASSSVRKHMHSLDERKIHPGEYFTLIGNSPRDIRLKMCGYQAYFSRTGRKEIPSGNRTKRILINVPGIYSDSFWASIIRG

[16] = target: T14, NEco N119A (Escherichia coli K, UniProt P24200 1-143, N119A); assay: as above; conditions: protein: recombinant
T14 sequence: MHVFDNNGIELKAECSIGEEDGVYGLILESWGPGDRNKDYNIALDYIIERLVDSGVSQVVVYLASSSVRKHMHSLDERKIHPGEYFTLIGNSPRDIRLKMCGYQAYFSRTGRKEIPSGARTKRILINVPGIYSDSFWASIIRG

AGACCCACGCTCAGCGCTTCCAGATTTATC (double strand) [30 bp G5mCGC]
binding signal (fold lower affinity than G5mCGG/C5mCGC) [1]: > 25

AGACCCACGCTCAGCGGTTCCAGATTTATC (double strand) [30 bp G5mCGG/C5mCGC]
binding signal (fold lower affinity than C5mCGG) [1]: 100

B1: 30 bp CCGG non-methylated (dsDNA)
DNA 1: AGACCCACGCTCACCGGTTCCAGATTTATC
DNA 2: GATAAATCTGGAACCGGTGAGCGTGGGTCT
binding signal [2]: ~10 fold lower affinity than hemi-methylated

B2: 30 bp CTGG/C5mCAG (T:A pair) (dsDNA)
DNA 1: AGACCCACGCTCACTGGTTCCAGATTTATC
DNA 2: GATAAATCTGGAACCAGTGAGCGTGGGTCT
modifications: 5mC in one strand
binding signal [3]: > 2000 fold lower affinity than C5mCGG

B3: 30 bp C5hmCGG fully hydroxymethylated (dsDNA)
DNA 1: AGACCCACGCTCACCGGTTCCAGATTTATC
DNA 2: GATAAATCTGGAACCGGTGAGCGTGGGTCT
modifications: 5hmC at inner C of CCGG, both strands
binding signal [2]: ~40 fold lower affinity than fully methylated

B4: 30 bp CTGG/C5mCGG (T:G mismatch) (dsDNA)
DNA 1: AGACCCACGCTCACTGGTTCCAGATTTATC
DNA 2: GATAAATCTGGAACCGGTGAGCGTGGGTCT
modifications: 5mC in one strand
binding signal ([3]; T:G mismatch): ~500 fold lower affinity than C5mCGG

B5: 30 bp CCGG hemi-methylated (dsDNA)
DNA 1: AGACCCACGCTCACCGGTTCCAGATTTATC
DNA 2: GATAAATCTGGAACCGGTGAGCGTGGGTCT
modifications: 5mC at inner C of CCGG, one strand
binding signal [4]: ~35 fold lower affinity than fully methylated (same variant) | binding signal [2]: ~230 fold lower affinity than fully methylated | binding result [5]: binds

B6: 30 bp C5mCGG fully methylated (dsDNA)
DNA 1: AGACCCACGCTCACCGGTTCCAGATTTATC
DNA 2: GATAAATCTGGAACCGGTGAGCGTGGGTCT
modifications: 5mC at inner C of CCGG, both strands
binding result [6]: binds | binding result [7]: binds | binding result [8]: binds | binding result [9]: binds | binding result [10]: binds | binding signal [11]: > 50 fold decreased vs wt NEco | binding signal [12]: > 50 fold decreased vs wt NEco | binding signal [13]: > 50 fold decreased vs wt NEco | binding signal [14]: > 50 fold decreased vs wt NEco | binding signal [15]: > 50 fold decreased vs wt NEco | binding signal [16]: ~40 fold impaired vs wt NEco
